Measured values from patent US20090217392A1.

Columns and labels:
[1] = target: human αVβ3 integrin, purified (human) (UniProt P06756); assay: saturation ELISA on αvβ3-coated plate, n = 6
[2] = target: human αvβ3 integrin on cells (human) (UniProt P06756); assay: 125-I antibody saturation binding on M21 cells
[3] = target: human αvβ3 integrin on cells (human) (UniProt P06756); assay: 125-I antibody saturation binding on A375S2 cells

human αvβ3 integrin on cells (human), sequence (P06756 31-1048, chain 1 of 2): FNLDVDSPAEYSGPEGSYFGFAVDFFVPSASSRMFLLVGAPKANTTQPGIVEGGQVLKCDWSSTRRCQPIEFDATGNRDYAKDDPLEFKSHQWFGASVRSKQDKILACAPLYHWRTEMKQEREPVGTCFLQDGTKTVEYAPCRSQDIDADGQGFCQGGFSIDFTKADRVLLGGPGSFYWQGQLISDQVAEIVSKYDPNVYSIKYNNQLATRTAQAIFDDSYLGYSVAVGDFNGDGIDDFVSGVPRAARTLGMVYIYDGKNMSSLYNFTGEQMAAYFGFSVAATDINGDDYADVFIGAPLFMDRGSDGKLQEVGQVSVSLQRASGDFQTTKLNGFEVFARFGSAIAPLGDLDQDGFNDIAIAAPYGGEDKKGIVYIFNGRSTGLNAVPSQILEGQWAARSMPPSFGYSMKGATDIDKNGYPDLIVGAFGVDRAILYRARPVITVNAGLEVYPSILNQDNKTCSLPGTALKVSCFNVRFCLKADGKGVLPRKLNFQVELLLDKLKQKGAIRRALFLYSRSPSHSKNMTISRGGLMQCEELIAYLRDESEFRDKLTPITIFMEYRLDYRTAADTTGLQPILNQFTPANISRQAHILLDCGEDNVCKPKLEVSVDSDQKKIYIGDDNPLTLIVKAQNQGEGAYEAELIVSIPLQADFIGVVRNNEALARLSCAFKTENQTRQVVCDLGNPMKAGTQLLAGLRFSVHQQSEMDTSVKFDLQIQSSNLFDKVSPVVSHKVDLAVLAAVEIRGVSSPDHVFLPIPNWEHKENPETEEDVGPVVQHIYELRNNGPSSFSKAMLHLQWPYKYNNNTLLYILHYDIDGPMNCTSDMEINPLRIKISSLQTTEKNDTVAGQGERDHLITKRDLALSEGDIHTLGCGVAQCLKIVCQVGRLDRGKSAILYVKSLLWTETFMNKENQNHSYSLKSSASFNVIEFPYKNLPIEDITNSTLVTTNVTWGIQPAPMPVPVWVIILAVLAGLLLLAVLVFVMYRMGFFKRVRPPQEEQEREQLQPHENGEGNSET
human αvβ3 integrin on cells (human), sequence (P05106 27-788, chain 2 of 2, further chain): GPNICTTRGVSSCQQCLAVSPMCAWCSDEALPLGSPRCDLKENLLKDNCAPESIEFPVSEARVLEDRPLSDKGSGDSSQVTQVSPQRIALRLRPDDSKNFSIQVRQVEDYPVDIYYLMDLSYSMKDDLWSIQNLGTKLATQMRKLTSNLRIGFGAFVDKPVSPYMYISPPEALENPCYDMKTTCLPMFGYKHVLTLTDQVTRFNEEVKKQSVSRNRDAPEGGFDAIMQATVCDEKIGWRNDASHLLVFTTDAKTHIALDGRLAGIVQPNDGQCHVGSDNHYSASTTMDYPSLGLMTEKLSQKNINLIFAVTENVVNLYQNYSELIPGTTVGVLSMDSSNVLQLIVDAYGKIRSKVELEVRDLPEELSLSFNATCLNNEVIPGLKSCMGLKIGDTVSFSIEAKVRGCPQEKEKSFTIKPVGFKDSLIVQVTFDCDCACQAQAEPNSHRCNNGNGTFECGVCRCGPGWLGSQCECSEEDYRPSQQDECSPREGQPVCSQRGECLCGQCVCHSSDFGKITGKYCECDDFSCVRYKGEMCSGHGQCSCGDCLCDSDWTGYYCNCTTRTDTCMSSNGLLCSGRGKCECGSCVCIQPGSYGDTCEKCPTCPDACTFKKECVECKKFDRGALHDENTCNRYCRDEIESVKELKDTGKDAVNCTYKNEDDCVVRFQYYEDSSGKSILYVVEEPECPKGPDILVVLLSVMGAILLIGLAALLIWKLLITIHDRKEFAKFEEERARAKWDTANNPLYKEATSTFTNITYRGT
human αVβ3 integrin, purified (human), sequence (P06756 31-1048, form in doubt, chain 1 of 2): as the sequence (P06756 31-1048, chain 1 of 2) above
human αVβ3 integrin, purified (human), sequence (P05106 27-788, form in doubt, chain 2 of 2, further chain): as the sequence (P05106 27-788, chain 2 of 2, further chain) above

B1: abciximab (Fab, INN chains, looked up, V domains shown)
VH: EVQLQQSGTVLARPGASVKMSCEASGYTFTNYWMHWVKQRPGQGLEWIGAIYPGNSDTSYIQKFKGKAKLTAVTSTTSVYMELSSLTNEDSAVYYCTLYDGYYVFAYWGQGTLVTVSA
VL: EIVLTQSPVTLSVTPGDSVSLSCRASRDISNNLHWFQQTSHESPRLLIKYASQSMSGIPSRFSGSGSGTDFTLSINSVETEDFGMYFCQQTNSWPYTFGGGTKLEIK
modifications: Fab 125I label
B1 was tested, and the Kd [1] was 0.25 nM, the Kd [2] was 10 nM and the Receptors per cell (receptors per cell) [2] was 660000. It also gave a Kd [3] of 22 nM and a Receptors per cell (receptors per cell) [3] of 370000.
